Laboratory results published in patent US20210269818A1.

Target: Rubisco purified from wheat leaves, inhibited by RuBP (ER) (Triticum aestivum (wheat)) (UniProt P11383)
Test: cell-based or functional assay

Q: Which Tm (° C.) (V): thermal midpoint at which half of Rubisco activation velocity by Rca is lost does the source give for “Rca extracted from control wheat leaves (TaRca-leaf-25° C.) (enzyme)” here?
A: Its Tm (° C.) (V): thermal midpoint at which half of Rubisco activation velocity by Rca is lost is 38.6 ° C.

Q: How did the Tm (° C.) (V): thermal midpoint at which half of Rubisco activation velocity by Rca is lost turn out when “Rca extracted from heat treated wheat leaves (TaRca-leaf-38° C.) (enzyme)” was run?
A: The Tm (° C.) (V): thermal midpoint at which half of Rubisco activation velocity by Rca is lost was 39.5 ° C.

Q: Which Tm (° C.) (V): thermal midpoint at which half of Rubisco activation velocity by Rca is lost does the source give for “recombinant rice Rca β (OsRca-β), signal peptide deleted, C-terminal His-tag (from UniProt P93431 49-466) (enzyme)” here?
A: Its Tm (° C.) (V): thermal midpoint at which half of Rubisco activation velocity by Rca is lost is 42.5 ° C.

Q: With “recombinant wheat Rca1 β (TaRca1-β), signal peptide deleted, C-terminal His-tag (from UniProt Q42450 44-425) (enzyme)” as the substance, how does the Tm (° C.) (V): thermal midpoint at which half of Rubisco activation velocity by Rca is lost read?
A: The Tm (° C.) (V): thermal midpoint at which half of Rubisco activation velocity by Rca is lost was 42 ° C.

Q: Which Tm (° C.) (V): thermal midpoint at which half of Rubisco activation velocity by Rca is lost does the source give for “recombinant wheat Rca2 α (TaRca2-α), signal peptide deleted, C-terminal His-tag (from UniProt Q40073 47-464) (enzyme)” here?
A: The Tm (° C.) (V): thermal midpoint at which half of Rubisco activation velocity by Rca is lost was 35.3 ° C.

Q: How did the Tm (° C.) (V): thermal midpoint at which half of Rubisco activation velocity by Rca is lost turn out when “recombinant wheat Rca2 β (TaRca2-β), signal peptide deleted, C-terminal His-tag (from UniProt Q40073 49-427) (enzyme)” was run?
A: The Tm (° C.) (V): thermal midpoint at which half of Rubisco activation velocity by Rca is lost was 34.8 ° C.
